The text below walks through data of US20230357386A1 (EISAI R AND D MANAGEMENT, published 2023).

Assay [1] concerns the target human EphA4 fibronectin type III domain 1-MBP-His protein (human, UniProt P54764 326-439; P0AEX9 29-392 = MBP). As to the kind of experiment: ELISA, domain-MBP-His captured by anti-6-His antibody. As to the method: (§1) The antibody A, the antibody B, and human IgG (Sigma-Aldrich Co. LLC) were evaluated for their binding activity against each EphA4 according to the following steps. Each well of a 96-well plate (Nunc) was coated with a rabbit anti-6-His antibody (Bethyl Laboratories, Inc.). After incubation at room temperature for 1 hour, each well was blocked with 1% BlockAce (KAC Co., Ltd.) overnight at 4° C. After washing with 0.02% Tween 20/PBS three times, each of the human EphA4 extracellular domain-, human EphA4 ligand-binding domain-, human EphA4 fibronectin type III domain 1-, and human EphA4 fibronectin type III domain 2-MBP-His proteins or the MBP-His protein (final concentration: 1 nM) was seeded in each well and incubated at room temperature for 1 hour. After washing three times, the antibody A, the antibody B, or human IgG (10 nM) was added to each well and incubated at room temperature for 1 hour. After washing three times, a horseradish peroxidase-labeled rabbit anti-human IgG Fcy fragment antibody (Jackson ImmunoResearch Laboratories, Inc.) was added thereto and incubated at room temperature for 1 hour. After washing three times, a TMBZ (3,3′,5,5′-tetramethylbenzidine, Kirkegaard & Perry Laboratories, Inc.) solution was added to each well. An equal amount of a reaction stopping solution (2 N H₂SO₄, FUJIFILM Wako Pure Chemical Corp.) was added to each well. The absorbance at 450 nm and 650 nm was read using a microplate reader (Thermo Fisher Scientific Inc.).
A general note: An ELISA detects its analyte on a solid surface through an enzyme-linked reagent.

In assay [2] the target is human EphA4 fibronectin type III domain 2-MBP-His protein (human, UniProt P54764 436-547; P0AEX9 29-392 = MBP). Described as above. As for the experimental part:
as §1

Assay [3] deals with T1, human EphA4 extracellular domain-MBP-His protein (human).
T1 construct: also called human EphA4 extracellular domain (ECD); ECD
As to the kind of experiment: ELISA, domain-MBP-His captured by anti-6-His antibody, antibody 10 nM. As for the experimental part:
as §1, with “An equal amount of a reaction stopping solution (2 N H₂SO₄, FUJIFILM Wako Pure Chemical Corp.) was added to each well.” left out

The target of assay [4] is T2, human EphA4 extracellular domain-SEAP-His protein (human).
T2 construct: also called Human EphA4 extracellular domain-SEAP-His10
T2 sequence (chain, as listed by the source limits assumed): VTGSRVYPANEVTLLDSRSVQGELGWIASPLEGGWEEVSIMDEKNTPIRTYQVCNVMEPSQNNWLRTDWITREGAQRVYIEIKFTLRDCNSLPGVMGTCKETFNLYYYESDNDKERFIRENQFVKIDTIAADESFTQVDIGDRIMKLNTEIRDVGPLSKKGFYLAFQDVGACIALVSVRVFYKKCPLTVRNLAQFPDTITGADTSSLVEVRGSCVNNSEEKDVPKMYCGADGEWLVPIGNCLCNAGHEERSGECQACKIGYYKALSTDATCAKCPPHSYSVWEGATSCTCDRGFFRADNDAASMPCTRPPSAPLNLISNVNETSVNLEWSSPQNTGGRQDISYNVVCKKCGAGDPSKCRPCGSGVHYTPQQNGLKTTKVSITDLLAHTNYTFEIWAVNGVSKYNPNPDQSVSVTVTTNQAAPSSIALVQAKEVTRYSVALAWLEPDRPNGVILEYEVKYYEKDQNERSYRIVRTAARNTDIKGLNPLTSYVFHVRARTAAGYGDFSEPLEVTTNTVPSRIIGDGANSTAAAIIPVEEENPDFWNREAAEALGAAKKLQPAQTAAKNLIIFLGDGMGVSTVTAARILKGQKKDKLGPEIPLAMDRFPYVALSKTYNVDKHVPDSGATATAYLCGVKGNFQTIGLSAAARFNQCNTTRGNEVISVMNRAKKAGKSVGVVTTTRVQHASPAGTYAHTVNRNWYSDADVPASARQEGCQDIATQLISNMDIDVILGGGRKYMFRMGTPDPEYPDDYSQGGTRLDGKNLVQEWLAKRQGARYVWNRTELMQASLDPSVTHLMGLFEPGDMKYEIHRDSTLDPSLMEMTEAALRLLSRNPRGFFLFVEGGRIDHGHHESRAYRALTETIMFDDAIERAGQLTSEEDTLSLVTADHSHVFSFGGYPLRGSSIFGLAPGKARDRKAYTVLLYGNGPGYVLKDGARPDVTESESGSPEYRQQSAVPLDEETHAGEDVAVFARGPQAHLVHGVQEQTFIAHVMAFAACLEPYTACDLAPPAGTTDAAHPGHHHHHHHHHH
As to the kind of experiment: competition ELISA, captured human EphA4 ECD-SEAP-His; competitor biotinylated human Ephrin A5-Fc (0.7 nM). As for the experimental part: (§2) The antibody A and the antibody B were evaluated for their inhibitory activity against the binding between human EphA4 and its human ligand according to the following steps. Each well of a 96-well plate (Nunc) was coated with an anti-alkaline phosphatase antibody (Thermo Fisher Scientific Inc.). After incubation overnight at 4° C., each well was blocked with 1% BlockAce (KAC Co., Ltd.) overnight at 4° C. After washing with 0.02% Tween 20/PBS three times, the human EphA4 extracellular domain-SEAP-His protein (final concentration: 10 nM) was seeded in each well and incubated at room temperature for 1 hour. After washing three times, ligands and serially diluted antibody A or antibody B (0, 0.003, 0.01, 0.03, 0.1, 0.3, 1, 3, 10, 30, 100, 300, 1000, and 3000 nM) were added to each well. The ligands used were biotinylated human Ephrin A5-Fc chimera (R&D Systems, Inc., final concentration: 0.7 nM) and biotinylated human Ephrin B3-Fc chimera (R&D Systems, Inc., final concentration: 2.3 nM). After incubation at room temperature for 1 hour and subsequent washing three times, a horseradish peroxidase-labeled streptavidin (GE Healthcare Japan Corp.) was added thereto and incubated at room temperature for 1 hour. […] The absorbance at 450 nm was read using a microplate reader (Thermo Fisher Scientific Inc.).

The target in assay [5] is T2, human EphA4 extracellular …. As to the kind of experiment: competition ELISA, captured human EphA4 ECD-SEAP-His; competitor biotinylated human Ephrin B3-Fc (2.3 nM). As to the method: as §2
Assay [6] shares this target. As to the kind of experiment: SPR (Biacore T200), EphA4 ECD-SEAP-His10 captured by anti-His antibody, antibody as analyte, 1:1 model, mean of three runs. As to the method:
The binding affinity of the antibody A and the antibody B to human EphA4 was determined by surface plasmon resonance (SPR) using Biacore T200 (Cytiva). First, an anti-His antibody (Cytiva, 28-9950-56) was immobilized on sensor chip CM5. The immobilization was performed by the amine coupling method using N-hydroxysuccinimide (NHS) and N-ethyl-N′-(3-dimethylaminopropyl)carbodiimide hydrochloride (EDC). Ethanolamine was used in blocking (the sensor chip and the reagents for immobilizations were all manufactured by Cytiva). The antibody was diluted with a buffer solution for immobilization (10 mM sodium acetate, pH 4.5) into 3 µg/mL and immobilized on the sensor chip according to the protocol attached to Biacore T200. Human EphA4 extracellular domain-SEAP-His10 was diluted with a running buffer solution HBS-EP+ (Cytiva, BR-1001-69), injected onto a flow cell for 120 seconds, and captured (amount of the antibody captured: approximately 6 RU). Subsequently, the antibody A or the antibody B serially diluted in the range of 100, 50, 25, 12.5, 6.3, 3.2, 1.6, and 0 nM using HBS-EP+ was added to the sensor chip for 120 seconds. […] The experiment mentioned above was carried out three times, and an average value of each parameter was calculated.
(In general: Surface plasmon resonance follows binding to a sensor surface in real time, without labels.)

The target in assay [7] is T3, rat EphA4 extracellular domain-SEAP-His protein (rat, UniProt Q03137 20-547 (mouse entry)).
T3 construct: not shown: SEAP and histidine tag
As to the kind of experiment: ELISA: rat EphA4 extracellular domain-SEAP-His captured by anti-6-His antibody, detection with HRP anti-human IgG Fc. As to the method: (§3) The antibody A and the antibody B were evaluated for their binding activity against each EphA4 according to the following steps. Each well of a 96-well plate (Nunc) was coated with a rabbit anti-6-His antibody (Bethyl Laboratories, Inc.). After incubation at room temperature for 1 hour, each well was blocked with 1% BlockAce (KAC Co., Ltd.) overnight at 4° C. After washing with 0.02% Tween 20/PBS three times, each of the mouse, rat, monkey and human EphA4 extracellular domain-SEAP-His proteins (final concentration: 1 nM) was seeded in each well and incubated at room temperature for 1 hour. After washing three times, the antibody A or the antibody B (0, 0.00013, 0.00064, 0.0032, 0.016, 0.08, 0.4, 2, and 10 µg/mL) was added to each well and incubated at room temperature for 1 hour. After washing three times, a horseradish peroxidase-labeled rabbit anti-human IgG Fcy fragment antibody (Jackson ImmunoResearch Laboratories, Inc.) was added thereto and incubated at room temperature for 1 hour. After washing three times, a TMBZ (3,3′,5,5′-tetramethylbenzidine, Kirkegaard & Perry Laboratories, Inc.) solution was added to each well. An equal amount of a reaction stopping solution (2 N H₂SO₄, FUJIFILM Wako Pure Chemical Corp.) was added to each well. The absorbance at 450 nm was read using a microplate reader (Thermo Fisher Scientific Inc.).

In assay [8] the target is T2, human EphA4 extracellular …. As to the kind of experiment: ELISA: human EphA4 extracellular domain-SEAP-His captured by anti-6-His antibody, detection with HRP anti-human IgG Fc. As for the experimental part:
as §3

Assay [9] has as its target T4, mouse EphA4 extracellular domain-SEAP-His protein (mouse, UniProt Q03137 20-547).
T4 construct: not shown: SEAP and histidine tag
As to the kind of experiment: ELISA: mouse EphA4 extracellular domain-SEAP-His captured by anti-6-His antibody, detection with HRP anti-human IgG Fc. As to the method: as §3

Assay [10] deals with T5, monkey EphA4 extracellular domain-SEAP-His protein (monkey).
T5 construct: not shown: SEAP and histidine tag
T5 sequence (chain, as listed by the source): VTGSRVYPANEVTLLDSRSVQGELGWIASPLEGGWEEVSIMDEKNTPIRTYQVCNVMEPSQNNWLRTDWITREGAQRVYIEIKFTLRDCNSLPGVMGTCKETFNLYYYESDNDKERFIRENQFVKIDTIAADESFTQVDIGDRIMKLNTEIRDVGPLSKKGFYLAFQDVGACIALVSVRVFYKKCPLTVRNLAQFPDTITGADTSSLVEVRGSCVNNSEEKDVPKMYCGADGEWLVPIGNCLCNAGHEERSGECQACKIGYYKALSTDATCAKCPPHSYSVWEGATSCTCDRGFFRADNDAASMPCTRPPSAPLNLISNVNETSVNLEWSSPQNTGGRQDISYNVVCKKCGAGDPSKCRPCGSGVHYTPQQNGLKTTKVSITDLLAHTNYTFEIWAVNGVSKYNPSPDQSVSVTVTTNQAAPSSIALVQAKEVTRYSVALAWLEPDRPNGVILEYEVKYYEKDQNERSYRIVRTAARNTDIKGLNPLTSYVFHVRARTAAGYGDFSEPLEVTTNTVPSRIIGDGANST
As to the kind of experiment: ELISA: monkey EphA4 extracellular domain-SEAP-His captured by anti-6-His antibody, detection with HRP anti-human IgG Fc. As to the method:
as §3

The target in assay [11] is T2, human EphA4 extracellular …. As to the kind of experiment: SPR (Biacore T200): human EphA4 extracellular domain-SEAP-His10 captured by anti-His antibody on CM5, antibody as analyte 1.6-100 nM, 1:1 fit. As to the method: The binding affinity of the antibody A and the antibody B to human EphA4 was determined by surface plasmon resonance (SPR) using Biacore T200 (Cytiva). First, an anti-His antibody (Cytiva, 28-9950-56) was immobilized on sensor chip CM5. The immobilization was performed by the amine coupling method using N-hydroxysuccinimide (NHS) and N-ethyl-N′-(3-dimethylaminopropyl)carbodiimide hydrochloride (EDC). Ethanolamine was used in blocking (the sensor chip and the reagents for immobilizations were all manufactured by Cytiva). The antibody was diluted with a buffer solution for immobilization (10 mM sodium acetate, pH 4.5) into 3 µg/mL and immobilized on the sensor chip according to the protocol attached to Biacore T200. Human EphA4 extracellular domain-SEAP-His10 was diluted with a running buffer solution HBS-EP+ (Cytiva, BR-1001-69), injected onto a flow cell for 120 seconds, and captured (amount of the antibody captured: approximately 6 RU). Subsequently, the antibody A or the antibody B serially diluted in the range of 100, 50, 25, 12.5, 6.3, 3.2, 1.6, and 0 nM using HBS-EP+ was added to the sensor chip for 120 seconds. Binding reaction curves were sequentially observed at the time of the addition (association phase, 120 sec) and after the completion of the addition (dissociation phase, 600 sec). After the completion of each observation, the sensor chip was regenerated by the addition of 3 M MgCl₂ (60 sec). The obtained binding reaction curves were subjected to fitting analysis using 1:1 binding models and software BIA evaluation attached to the system to calculate the binding affinity (KD = kd / ka) to human EphA4. The experiment mentioned above was carried out three times, and an average value of each parameter was calculated.

B1: antibody A (human anti-EphA4 monoclonal antibody) (antibody, V domains shown)
VH: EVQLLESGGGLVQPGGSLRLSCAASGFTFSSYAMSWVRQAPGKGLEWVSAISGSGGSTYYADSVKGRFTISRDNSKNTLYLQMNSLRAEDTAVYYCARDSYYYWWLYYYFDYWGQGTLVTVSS
VL: SSELTQDPAVSVALGQTVRITCQGDSLRSYYASWYQQKPGQAPVLVIYGKNNRPSGIPDRFSGSSSGNTASLTITGAQAEDEADYYCQSSYSSSYSYVFGGGTKLTVLG
notes: Human IgG2 / lambda, from a phage library scFv converted to IgG; made in Expi293F or CHOK1SV cells
In general, IC50 refers to the midpoint of a concentration-inhibition curve. A word on the Kd: it is a measure of binding affinity in units of concentration. For orientation: EC50 (read off the curve) means the midpoint of the concentration-response curve. Usually koff stands for a measure of how fast the partners let go of each other. As a reminder, the kon is the rate constant with which the complex forms. Take B1: the figures for the binding result in assay [1], in [2] and in [3] were “no binding (tested: 10 nM)”, “no binding (tested: 10 nM)” and “binds”, respectively. The results for the IC50 in [4] and in assay [5] were 3.9 nM and 3 nM, respectively. For the same molecule, the Kd in assay [6] is 0.467 nM. Moreover, the “EC50 (read off the curve)” value in assay [7], in [8], in assay [9] and in assay [10] was approximately 0.02 nM each time. In assay [11], the koff amounted to 0.000251 s⁻¹. In assay [11], this molecule came in with a kon of 537000 M⁻¹ s⁻¹.

B2: antibody B (human anti-EphA4 monoclonal antibody) (antibody, human IgG1, lambda, V domains shown)
VH: EVQLLESGGGLVQPGGSLRLSCAASGFTFSSFAMSWVRQAPGKGLEWVSAISGSGGSTYYADSVKGRFTISRDNSKNTLYLQMNSLRAEDTAVYYCARDDYYPYWWYYYYFDYWGQGTLVTVSS
VL: SSELTQDPAVSVALGQTVRITCQGDSLRSYFASWYQQKPGQAPVLVIYGKNNRPSGIPDRFSGSSSGNTASLTITGAQAEDEADYYCQSSYSSSYSYVFGGGTKLTVLG
notes: Human IgG1/2 (IgG1 CH1 and hinge, IgG2 CH2 and CH3) / lambda; made in Expi293F or CHOK1SV cells
In the case of B2, the binding result in assay [1] is listed as “no binding (tested: 10 nM)”; in [2] it was “no binding (tested: 10 nM)”; in assay [3], “binds”. Further, the IC50 came out at 4.8 nM in [4] and 4.1 nM in [5]. This molecule also yielded an equilibrium dissociation constant (Kd) in [6] of 0.156 nM. Besides, the “EC50 (read off the curve)” value in assay [7], in assay [8], in [9] and in assay [10] was approximately 0.04 nM throughout. For the same molecule, in assay [11], the koff stood at 8.01e-05 s⁻¹. In assay [11], the kon amounted to 512000 M⁻¹ s⁻¹.
